Test results published in the supplement of paper PMC12455559.

Experiment: purified protein yield per well (BCA); higher = higher soluble expression
In short: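 Candidate enzymes were made in 2 mL autoinduction cultures of E. coli C41(DE3) with 100 µg/mL kanamycin, at 37 °C for 2 h and then 18 °C for 40 h, and purified with Ni-charged magnetic beads and SUMO protease cleavage. The Pierce Rapid Gold BCA kit gave purified protein yield per well. Values lower than 25 ug (0.1 mg/mL) are below the detection threshold.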

Sequence | purified protein yield per well
ATVACSDCSNGFQRGTLPRVDQLESSRGPYSVKTSNVSVFARGFGGGTIHYSTDSGGQQGIIAVIPGYVSYESSIKWWGPRLASWGFTVITINTNTIYDQPNSRANQLSAAIDYVIDKGNDRSSPIYGLVDPERVGVIGWSMGGGGTLKLATDRDIDAIIPQAPWYSGLNSFSRITTPTMVIACQADAVAPVALHASIFYNQIPRSTPKAFFEIAAGSHFCGNSGYPNEDILGRNGVAWMKRFIDNDTRYNQFLCGQNFDRSLRVSDYKDTCNTY [DP094] | < 25 µg
QSYVHGPDPTTAALETTGPYAVSNTKIAAPSGYGGGTVYYPTTNTEGAFAVVSVTPGFTEKQSAINWLGPLLASHGFVVVTIDTKTALDAPSSRAKQMIAALKQVSGLSANSTSPFAGRVDGTRQAVMGHSMGGGGSLDAARDNPTLKASIPMAPWETVKNYSTMTVPTLIVSCESDTIAPVASHANKFYDSFTPTLNKALLEMKGVGHSCTNSTTSAALKAVIGKYSISWLKRFADNDNRYSDFLCGASHQADVSGSLISTYKENCPY [DP066] | < 25 µg
DEIGQAPTPSNITGSGSFSTTSSTITGQSGFGGGTVYYPTASGKYPVVAMVPGFLSDWSSISWLGPRVASWGFVVVGANTNSGLDDPTSRGDQLLAALNWAVNSSPTAVRGKTDGTRRGVAGWSMGGGGTLEALAKDTSGVVKAGVPLAPWHNDKSWNQVNEPVFLIGGENDGVASPDSHAIPFYNSLGGPKSFLERAGANHFFPNSSDPTVSRAVVSFLKRHVSADNRFSPYVCGFSGSAVSDFRSNSC [ESM133] | < 25 µg
MVSGTATATPAATAAHPVRAAANPYERGPAPTVASVEAPLGPYAVSRITVARSSVSGFGGGTVHYPTSTADGTFGAVAVSPGFTGTQSSIAWYGPRLASQGFVVLTIDTLTGLDQPASRGRQLLAALDYLTGESAVRGRIDRTRLGVMGHSMGGGGSLEAAKSRTSLKAAIPLTGWNLDTTWPEVRTPTLVVGADGDTVAPVAAHSEPFYASLPGTLDKAYLELKGAVHRTPITANTTIAKYSVSWLKRFIDNDTRYERFLCPLPAPGPTIAEYRGNCPHT [TEP118] | < 25 µg
QIGPDPTSSSLNATSGPFAVSTSTVAIASGFGGGTIYYPTTTGQYGVIAVSPGFTATQSSIAWLGRRLATHGFVVITIDTLTTLDQPASRATQLVAALNYVVNSATSTVRSRVDSSKRAVAGHSMGGGGALIAAQNNPGLKASLPLTPWNLSTNFSQNQVPTLIFGSDGDTVAPVAVHSRPFYASLPSSTYKAYAELNLATHFTPNSTNTPIGRYGVAWMKRFIDSDTRYSAFLCGAEHQAYATALVFDRYNQNCPY [ESM113] | < 25 µg
ADNPYQRGPDPTERSVTARRGPFAIDEISVNGGIGAGFNRGTIFYPTDRSQGTFGAVAVIPGFLSPESLVRWFGPRLASQGFVVMTLTTNGLTDTPESRSEQLLAALDYLTTRSQVRDRIDPSRLAVMGHSMGGGGSLAAAAKRPTLRAAIPLAPWSLTKNWSNLTVPTLIIGAENDNVAPVAGHSERFYDSMTNVPEKAYLEMAGGNHVDPTAESDLVAKFTISWLKRFVDDDTRYDQFLCPAPRPNRQISEYRDTCPHS [DP029] | < 25 µg
QTNPYERGPAPTTSSLEASRGPFSYQSFTVSRPSGYRAGTVYYPTNAGGPVGAIAIVPGFTARQSSINWWGPRLASHGFVVITIDTNSTLDQPDSRSRQQMAALSQVATLSRTSSSPIYNKVDTSRLGVMGWSMGGGGSLISARNNPSIKAAAPQAPWSASKNFSSLTVPTLIIACENDTIAPVNQHADTFYDSMSRNPREFLEINNGSHSCANSGNSNQALLGKKGVAWMKRFMDNDRRYTSFACSNPNSYNVSDFRVAACN [ESM158] | < 25 µg
MGFGGGTIYYPTTSGQYGAIAVCPGFTGTSSSISWFARRLATHGFVTIAMNTTTTLDYPSSRATQLAAALRYLLNSSSSTIRSRIRTADRGVAGHSMGGGGTLIASANDSTLRAGIPMTPWNTYTSFSSVRVPQMIFGADGDTIAPYATHARPFYNSISLAEKAYALLNGAGHFTPNSTDQRIRRYGVAFAKRFVDGDTRYNPFLCGAEHTAYATSSRFQTYLSNCPY [ESM185] | < 25 µg
AADNPYERGPAPTVSSIEAARGSYAVSQTSVSSLSVSGFGGGTVYYPSSTADGTFGAVVISPGFTAYQSSIAWLGPRLASQGFVVFTIDTNTTLDQPDSRGRQLLAALDYLTKSSSVRGRVDASRLGVMGHSMGGGGSLEAAKSRTSLKAAIPLTGWNADKTWPELRTPTLVVGADGDTVAPVSSHSEPFYQSLPSTLDKAYLELNGATHFTPNSSNTTIAKYSISWLKRFIDNDTRYEQFLCPLPRPSLTIEEYRGNCPHGS [TEP044] | < 25 µg
APGPSAPCADCSRGPNPTVASLQSRSGPFTVSTFSVSGYLRGFGNSTVHYPTNATGKMGAIAVIPGYLSYEDSIRWWGPRLASHGFVVITMNTNTIYDQPDSRATQLSRALDYVIEQSNSRSSPISGKVDSTRLGAIGWSMGGGGSLKLSTERSLNAIIPQAPYYAGLNRFNTINTPTMILACSADVVAPVASHASPFYNRIPDATPKAFLEIYGGSHFCANSGYPNEDLLGMYGISWMKRFIDFDSRYSQFLCGPNHAADLRVSEYRENCNY [ESM165] | < 25 µg
QNCGNISLNNITNPGPYGYLTMDQNDGLRDGPDYGNATVYYPTNTTTPFACVSIVPGFFSTQSSVAAWGPFLASHGIVSIIFDTNSLFDSPADRADGLLDALETMRQENTRTASPLFGLIDESRFGVMGWSMGGGGAQLAAVIDPSLKAVIALCPWLNSPNSNTLNHTVPVLILSGELDPTAPPDLHADVHFDLTPNTTDKLLFEVDGGDHSIANDPANAQGDIGKYGLAWLRNYLLDDPCHCPLVLLPSTETSNTMTNVVCPPTLACPIQLTLFNNLIADGTYKAIQTVTSASMVPLSGNVSLKAEQSIFLDCGFSVDSGAAFEAVIQICN [TEP048] | < 25 µg
QTNPYARGPNPTRDSLEASRGPFAFSSFTVSRPSGYAGGTVYYPTNAGGTVGAIAVVPGFSARQSSINWWGPRLASHGFVVITIDTNSSFDQPPSRSRQQLAALDQVATLARTSGSPIYNKVDTTRMGVMGSSMGGGGSMISAQNRPSLKAAIPQSPSVSSTNFSSVVVPTLIFACENDTVPPGGSQAVAIYNSMMLNPKQLLEIAGGSPFCGNSN [ESM182] | < 25 µg
YYSGATLYYPIDAPEPFASIVIVPGWGMPESTIQDWGPFFASWGIVAMTIGTNNPNYDWPEERAEALLDAIETIKQEDGRINSPVYGKIDLNSFAVSGWSMGGGGAQLAAVMEPTLKAVIALCPWLDNWVLGPDDLNHSVPILIFSGENDVNAPPYLHADIHYNYTPAATDKLLFEVENGDHYVANGPDGGSGYIGDRAHEWLKKYLLDDFSNCELLLEVPPTASQYLTNIECESVIQGDLNGDGVIDILDIIILVNMILNDEYNSIADLNEDGELNILDVVTIVNLVLFGDDSVCIDIDGNIYETVQIGDQLWMAENLKVTHYNDGSEITHIINSDDWGNYNEGQYGVYDNDPSNADIYGNLYNWYTVDDDRGVCPEGFHAPSDEEFMELEIFLGMSESEANSTGNRGTNEGSKLADNADLWISGNLENNAEFGMSGFNGLPAGHRLYDNGYYSSMGNFVSYWSSTEHSSNYAWNRELEYHASVVYRFYATKQFGFSIRCLGD [TEP063] | < 25 µg
RPAPEAAAPQAAQGNPYQRGPDPTVAAIEASRGPFATAQMSVAPGNGFNGGVVYYPTDTSLGTWGALAIVPGYTALCADEEAWMGPWLSSFGFAVICVETNTRTDDAGTRASELLAGLDWLTTQSPVRAEIDPNRLSVLGHSAGGAGAIIAAERRPALKAMIGLAPGFPGNGLSMATDTVPTLVVGGQNDTVVTPSYLSGLYATLPAGTQSGFAQIAGADHVYYTRPNNVEMKLLIPWLKVFVDSDTRYTQFLCPALPDPSGISAYQPKCPYVPTGGTTPPPGGQSVHAVGAGKCLTVPGADPAAGTQTDISTCDGGTGQVWTRTSSGQLTVSTGGTTMCLDAAGAGVSPGTRVQVWPCNGGSNQQWRVNANGTITGAQSGLCLDVTGASTANGALVELWTCNGGSNQQWALQ [TEP183] | < 25 µg
ADNPFERGPDPSESSIEAYRGAYSVSEQSVSRWVSGFGGGTIHYPTTRSDGTFGAVVVSPGYTGTESSISWLGPRLASQGFVVLTMVTNSIYDYPDSRARQLQAALDYLTSSSSGVADRIDPDRLALMGHSMGGGGTLRAVSENPDIKAAIPMTPWHTDKTWREVTTPTLIFGAENDTVAPHYSHAEPFYDSLPSSLEKVYLELDGASHFAPNYSNTTIAKYSISWLKRFVDDDTRYSQFLCPGPSFWDGDVQTYESTCDF [TEP197] | < 25 µg
SPPIVRYDYAPGKYSGNGPYSYSTYQLPGWSPGATVYYPTNASPPFSGIVFCPPYTGTQSNFAAWGPFFASHGIVLVTMDTSSTLISVDQRAIEQRMVLDLLKAERNRPGSPLYNKIDPERVGAMGWSMGGGASWINSAEYPGLKTAMSLAGHHLTAINPNAKGYGTQCPTIIFCGLLDQTILGGMLQSETVYYNIPSGIPKVFYEVSTAGHFVWYSPTAANSHVAELALAFQKTFLDGDTRWEQYIEEPLFD [TEP034] | < 25 µg
FSFTPPPEPNPDPDPTPPCEVDCDFTRGPDPSSSYLEAASGPYSVNTINVSSSVSGFGGGTVYYPTGTSGLMGAISIAPGFFAAESSIGWWGPRLASHGFVVITIATNSIFDGTDSRATQLDRALDYVINQSNSGSSAISGMVDSNRVGAMGWSMGGGGSLILGSGTRLSAVIPLAPWESGSNNFDQMTAPTLIIACENDGTAPVASHASPFYNTIPGTTDKAFLEINGGGHSCANGGGVNG [ESM098] | < 25 µg
DGPYDVDWIYESDGLRNGPYYLGATLYYPINAPEPLASIVIVPGWGMPESTMQDWGPFFASWGIIAMTIGTNNPSTDWPEDRAEALLDAIETIKQENDRIDSPVNGRIDLNSFAVSGWSMGGGGAQLAAVMEPTLKAVIALCPWLDNWVLEPDDLNHSVPTLIFSGQYDVNAPPYLHANIHYNYTPSTTDKLLFEVEYGDHYVANGPNGGSGYVGDKALEWIN [TEP053] | < 25 µg
ADSPYQRGPDPTPASVAATRGPFATTQATVPAGNGFNGGYVYYPTDTSQGTWGAVAIVPGYSALFANEEAWMGPWLASFGFVVIGIETNSRSDGADARATQLLAALDYLTRTSPIRDRVDANRLGVMGHSAGGAGTLLASLRRPTLKTAVGLAPGTPGNNLNMSTTQVPTMLLSGQNDGTVTPSYVQGIYNTLPAGVEHAWAELAGNDHLSFTRSNPTEMRLLIPWLKTFLDNDTRYTQFLCPLGNSTGVSRYNATCPLVPPDGPTTPPTSSPPTSAPPTTSAPTTPPPSGAPCTATYRTVNAWSGGFQGEVTVTAGTAAINGWTVTWGLNNGQSISQVWSGTLSTSGSTATIRNVSYNGSLAPGGTTSFGFLGSGTPAATSPTCASP [ESM025] | < 25 µg
